Laboratory results taken from IntAct's records for PubMed 31515488.

B1: Beta-taxilin (Homo sapiens), Q8N3L3 (parent)
chain: MEANHSEQLSAERQSTPPGDSSSLPSHNGLEKEDGQDSPTPVQPPEKEASVHPDISEELNRQLEDIINTYGSAASTAGKEGSARASEQPENAESPDNEDGDCEETTEEAGREPVASGEPPTVKEPVSNKEQKLEKKILKGLGKEANLLMQNLNKLQTPEEKFDFLFKKYAELLDEHRTEQKKLKLLQKKQVQIQKEKDQLQGEHSRAILARSKLESLCRELQRHNKTLKEEALQRAREEEEKRKEITSHFQSTLTDIQGQIEQQSERNMKLCQENTELAEKLKSIIDQYELREEHLDKIFKHRELQQKLVDAKLEQAQEMMKEAEERHKREKEYLLNQAAEWKLQAKVLKEQETVLQAQLTLYSGRFEEFQSTLTKSNEVFATFKQEMDKTTKKMKKLEKDTATWKARFENCNKALLDMIEEKALRAKEYECFVMKIGRLENLCRALQEERNELHKKIRDAEISEKDDQSQHNSDEEPESNVSVDQEIDAEEVNSVQTAVKNLATAFMIIHHPESTPHQSKETQPEIGSSQESADAALKEPEQPPLIPSRDSESPLPPLTPQAEAEGGSDAEPPSKASNSPAGLGAETQCEGLPVGAQADQASWKPEAEASGQAPQAPTEASLQKMEADVPAPACAAEEHVAAMVPACEPSRQPPRAAAEELPVGASAGPQPRNVADTNLEGVD
partner: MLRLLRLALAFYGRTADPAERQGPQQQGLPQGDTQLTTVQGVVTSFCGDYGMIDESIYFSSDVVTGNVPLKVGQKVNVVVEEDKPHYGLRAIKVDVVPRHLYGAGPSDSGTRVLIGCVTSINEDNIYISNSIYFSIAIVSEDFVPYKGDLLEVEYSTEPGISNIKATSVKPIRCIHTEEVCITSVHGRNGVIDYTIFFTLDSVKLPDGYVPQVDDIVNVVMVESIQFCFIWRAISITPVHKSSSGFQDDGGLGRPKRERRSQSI
B2: Medium-chain acyl-CoA ligase ACSF2, mitochondrial (Homo sapiens), Q96CM8 (parent)
chain: MAVYVGMLRLGRLCAGSSGVLGARAALSRSWQEARLQGVRFLSSREVDRMVSTPIGGLSYVQGCTKKHLNSKTVGQCLETTAQRVPEREALVVLHEDVRLTFAQLKEEVDKAASGLLSIGLCKGDRLGMWGPNSYAWVLMQLATAQAGIILVSVNPAYQAMELEYVLKKVGCKALVFPKQFKTQQYYNVLKQICPEVENAQPGALKSQRLPDLTTVISVDAPLPGTLLLDEVVAAGSTRQHLDQLQYNQQFLSCHDPINIQFTSGTTGSPKGATLSHYNIVNNSNILGERLKLHEKTPEQLRMILPNPLYHCLGSVAGTMMCLMYGATLILASPIFNGKKALEAISRERGTFLYGTPTMFVDILNQPDFSSYDISTMCGGVIAGSPAPPELIRAIINKINMKDLVVAYGTTENSPVTFAHFPEDTVEQKAESVGRIMPHTEARIMNMEAGTLAKLNTPGELCIRGYCVMLGYWGEPQKTEEAVDQDKWYWTGDVATMNEQGFCKIVGRSKDMIIRGGENIYPAELEDFFHTHPKVQEVQVVGVKDDRMGEEICACIRLKDGEETTVEEIKAFCKGKISHFKIPKYIVFVTNYPLTISGKIQKFKLREQMERHLNL
B3: Protein boule-like (Homo sapiens), Q8N9W6 (parent)
chain: MQTDSLSPSPNPVSPVPLNNPTSAPRYGTVIPNRIFVGGIDFKTNESDLRKFFSQYGSVKEVKIVNDRAGVSKGYGFVTFETQEDAQKILQEAEKLNYKDKKLNIGPAIRKQQVGIPRSSIMPAAGTMYLTTSTGYPYTYHNGVAYFHTPEVTSVPPPWPSRSVCSSPVMVAQPIYQQPAYHYQATTQYLPGQWQWSVPQPSASSAPFLYLQPSEVIYQPVEIAQDGGCVPPPLSLMETSVPEPYSDHGVQATYHQVYAPSAITMPAPVMQPEPIKTVWSIHY
partner: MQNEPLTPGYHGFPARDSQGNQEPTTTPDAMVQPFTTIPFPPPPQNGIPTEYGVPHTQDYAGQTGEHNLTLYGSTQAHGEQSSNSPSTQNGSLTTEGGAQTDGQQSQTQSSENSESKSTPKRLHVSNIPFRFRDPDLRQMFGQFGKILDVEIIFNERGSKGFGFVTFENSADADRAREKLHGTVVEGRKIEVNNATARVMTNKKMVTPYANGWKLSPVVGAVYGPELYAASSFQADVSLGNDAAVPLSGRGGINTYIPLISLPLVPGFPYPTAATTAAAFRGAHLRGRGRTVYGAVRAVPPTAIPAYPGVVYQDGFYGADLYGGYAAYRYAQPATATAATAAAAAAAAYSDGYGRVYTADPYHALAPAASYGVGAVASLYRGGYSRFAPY
B4: TBC1 domain family member 22B (Homo sapiens), Q9NU19 (parent)
chain: MAAENSKQFWKRSAKLPGSIQPVYGAQHPPLDPRLTKNFIKERSKVNTVPLKNKKASSFHEFARNTSDAWDIGDDEEEDFSSPSFQTLNSKVALATAAQVLENHSKLRVKPERSQSTTSDVPANYKVIKSSSDAQLSRNSSDTCLRNPLHKQQSLPLRPIIPLVARISDQNASGAPPMTVREKTRLEKFRQLLSSQNTDLDELRKCSWPGVPREVRPITWRLLSGYLPANTERRKLTLQRKREEYFGFIEQYYDSRNEEHHQDTYRQIHIDIPRTNPLIPLFQQPLVQEIFERILFIWAIRHPASGYVQGINDLVTPFFVVFLSEYVEEDVENFDVTNLSQDMLRSIEADSFWCMSKLLDGIQDNYTFAQPGIQKKVKALEELVSRIDEQVHNHFRRYEVEYLQFAFRWMNNLLMRELPLRCTIRLWDTYQSEPEGFSHFHLYVCAAFLIKWRKEILDEEDFQGLLMLLQNLPTIHWGNEEIGLLLAEAYRLKYMFADAPNHYRR
partner: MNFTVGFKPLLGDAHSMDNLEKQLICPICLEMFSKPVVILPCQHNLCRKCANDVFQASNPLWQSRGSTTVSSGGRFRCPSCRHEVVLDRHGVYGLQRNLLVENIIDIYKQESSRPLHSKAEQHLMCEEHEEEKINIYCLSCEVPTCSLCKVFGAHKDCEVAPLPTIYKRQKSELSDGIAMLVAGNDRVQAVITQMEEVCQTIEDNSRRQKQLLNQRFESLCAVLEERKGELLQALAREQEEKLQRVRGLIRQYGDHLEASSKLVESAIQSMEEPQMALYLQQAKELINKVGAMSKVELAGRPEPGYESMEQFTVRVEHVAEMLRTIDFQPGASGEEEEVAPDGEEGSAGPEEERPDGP
B5: Ropporin-1A (Homo sapiens), Q9HAT0 (parent)
chain: MAQTDKPTCIPPELPKMLKEFAKAAIRVQPQDLIQWAADYFEALSRGETPPVRERSERVALCNRAELTPELLKILHSQVAGRLIIRAEELAQMWKVVNLPTDLFNSVMNVGRFTEEIEWLKFLALACSALGVTITKTLKIVCEVLSCDHNGGSPRIPFSTFQFLYTYIAKVDGEISASHVSRMLNYMEQEVIGPDGIITVNDFTQNPRVQLE
partner: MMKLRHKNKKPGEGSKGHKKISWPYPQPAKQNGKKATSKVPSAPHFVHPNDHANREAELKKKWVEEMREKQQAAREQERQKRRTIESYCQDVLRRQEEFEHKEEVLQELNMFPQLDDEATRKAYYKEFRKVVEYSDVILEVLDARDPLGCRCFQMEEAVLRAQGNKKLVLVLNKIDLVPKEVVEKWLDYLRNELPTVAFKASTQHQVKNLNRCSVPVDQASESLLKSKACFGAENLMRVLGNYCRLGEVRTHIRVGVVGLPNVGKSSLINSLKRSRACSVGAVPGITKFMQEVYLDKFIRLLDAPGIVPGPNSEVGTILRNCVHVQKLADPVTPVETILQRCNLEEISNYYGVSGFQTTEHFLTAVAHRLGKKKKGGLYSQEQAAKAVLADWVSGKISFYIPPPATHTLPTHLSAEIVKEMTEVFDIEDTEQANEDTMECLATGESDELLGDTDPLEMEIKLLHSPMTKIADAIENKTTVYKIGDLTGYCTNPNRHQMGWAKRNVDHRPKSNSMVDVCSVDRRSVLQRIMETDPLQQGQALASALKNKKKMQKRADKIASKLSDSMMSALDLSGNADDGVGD

Variants of: B1
Conditions: with ct55_human CT55, Q8WUE5

effect of a mutation on the interaction | Variant
with no effect | T523I
with no effect | T361A

Variants of: B2
Conditions: with atrap_human AGTRAP

effect of a mutation on the interaction | Variant
disrupting interaction strength | A34V
disrupting interaction strength | G19W

Variants of: B2
Conditions: with ar6p1_human ARL6IP1, Q15041
Chain of ar6p1_human ARL6IP1, Q15041 (Q15041 whole entry): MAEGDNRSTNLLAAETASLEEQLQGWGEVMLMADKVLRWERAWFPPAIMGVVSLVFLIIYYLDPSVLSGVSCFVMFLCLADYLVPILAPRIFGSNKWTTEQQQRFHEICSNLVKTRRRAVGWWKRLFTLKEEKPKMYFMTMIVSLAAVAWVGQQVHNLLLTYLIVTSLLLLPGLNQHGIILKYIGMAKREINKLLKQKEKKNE

effect of a mutation on the interaction | Variant
disrupting interaction strength | A34V
disrupting interaction strength | G19W

Variants of: B3
Conditions: with rfox2_human RBFOX2, O43251

effect of a mutation on the interaction | Variant
with no effect | MQTDSLSPSPNPVSPVPLNNPTSAPRYGTVIPNRIFVGGIDFKTNESDLRKFFSQYGSVKEVKIVNDRAGVSKGYGFVTFETQEDAQKILQEAEKLNYKDKKLNIGPAIRKQQVGIPRSSIMPAAGTMYLTTSTGYPYTYHNGVAYFHTPEVTSVPPPWPSRSVCSSPVMVAQPIYQQPAYHYQATTQYLPGQWQWSVPQPSASSAPFLYLQPSEVIYQPVEIAQDGGCVPPPLSLMETSVPEPYSDHGVQATYHQVYAPSAITMPAPVIQPEPIKTVWSIHY [M270I]
with no effect | MQTDSLSPSPNPVSPVPLNNPTSAPRYGTVIPNRIFVGGIDFKTNESDLRKFFSQYGSVKEVKIVNDRAGVSKGYGFITFETQEDAQKILQEAEKLNYKDKKLNIGPAIRKQQVGIPRSSIMPAAGTMYLTTSTGYPYTYHNGVAYFHTPEVTSVPPPWPSRSVCSSPVMVAQPIYQQPAYHYQATTQYLPGQWQWSVPQPSASSAPFLYLQPSEVIYQPVEIAQDGGCVPPPLSLMETSVPEPYSDHGVQATYHQVYAPSAITMPAPVMQPEPIKTVWSIHY [V78I]
with no effect | MQTDSLSPYPNPVSPVPLNNPTSAPRYGTVIPNRIFVGGIDFKTNESDLRKFFSQYGSVKEVKIVNDRAGVSKGYGFVTFETQEDAQKILQEAEKLNYKDKKLNIGPAIRKQQVGIPRSSIMPAAGTMYLTTSTGYPYTYHNGVAYFHTPEVTSVPPPWPSRSVCSSPVMVAQPIYQQPAYHYQATTQYLPGQWQWSVPQPSASSAPFLYLQPSEVIYQPVEIAQDGGCVPPPLSLMETSVPEPYSDHGVQATYHQVYAPSAITMPAPVMQPEPIKTVWSIHY [S9Y]

Variants of: B4
Conditions: with tri54_human TRIM54, Q9BYV2

effect of a mutation on the interaction | Variant
with no effect | MAAENSKQFWKRSAKLPGSIQPVYGAQHPPLDPRLTKNFIKERSKVNTVPLKNKKASSFHEFARNTSDAWDIGDDEEEDFSSPSFQTLNSKVALATAAQVLENHSKLRVKPERSQSTTSDVPANYKVIKSSSDAQLSRNSSDTCLRNPLHKQQSLPLRPIIPLVARISDQNASGAPAMTVREKTRLEKFRQLLSSQNTDLDELRKCSWPGVPREVRPITWRLLSGYLPANTERRKLTLQRKREEYFGFIEQYYDSRNEEHHQDTYRQIHIDIPRTNPLIPLFQQPLVQEIFERILFIWAIRHPASGYVQGINDLVTPFFVVFLSEYVEEDVENFDVTNLSQDMLRSIEADSFWCMSKLLDGIQDNYTFAQPGIQKKVKALEELVSRIDEQVHNHFRRYEVEYLQFAFRWMNNLLMRELPLRCTIRLWDTYQSEPEGFSHFHLYVCAAFLIKWRKEILDEEDFQGLLMLLQNLPTIHWGNEEIGLLLAEAYRLKYMFADAPNHYRR [P177A]

Variants of: B5
Conditions: with gnl3l_human GNL3L

effect of a mutation on the interaction | Variant
with no effect | C62W
